Test: melting temperature; melt of duplexes
Details: sodium 0.0675 M; strand 1 µM

Substance	Tm
CGACGTGCAATATGTGCTG+CAGCACATGCGGCACGTCG ((((((((...((((((((+))))))))...))))))))	49.7 °C
CGACGTGCTACATGTGCTG+CAGCACATGTAGCACGTCG (((((((((((((((((((+)))))))))))))))))))	63.6 °C
CGACGTGCCGTATGTGCTG+CAGCACATCATGCACGTCG ((((((((...((((((((+))))))))...))))))))	48.9 °C
CGACGTGCGTCATGTGCTG+CAGCACATGCGGCACGTCG ((((((((..(((((((((+)))))))))..))))))))	54.4 °C
CGACGTGCTATATGTGCTG+CAGCACATCCGGCACGTCG ((((((((...((((((((+))))))))...))))))))	49 °C
CGACGTGCATGATGTGCTG+CAGCACATGGGGCACGTCG ((((((((...((((((((+))))))))...))))))))	50 °C
CGACGTGCCATATGTGCTG+CAGCACATTCCGCACGTCG ((((((((...((((((((+))))))))...))))))))	48.1 °C
CGACGTGCTTAATGTGCTG+CAGCACATATAGCACGTCG (((((((((..((((((((+))))))))..)))))))))	54.2 °C
CGACGTGCGTTATGTGCTG+CAGCACATTTTGCACGTCG ((((((((...((((((((+))))))))...))))))))	49.7 °C
CGACGTGCTATATGTGCTG+CAGCACATGCCGCACGTCG ((((((((...((((((((+))))))))...))))))))	48.9 °C
CGACGTGCAATATGTGCTG+CAGCACATTCTGCACGTCG (((((((((..((((((((+))))))))..)))))))))	50.7 °C
CGACGTGCGGAATGTGCTG+CAGCACATTACGCACGTCG (((((((((.(((((((((+))))))))).)))))))))	62 °C
CGACGTGCTAAATGTGCTG+CAGCACATCAGGCACGTCG ((((((((...((((((((+))))))))...))))))))	50.9 °C
CGACGTGCTCAATGTGCTG+CAGCACATCTAGCACGTCG (((((((((..((((((((+))))))))..)))))))))	51 °C
CGACGTGCGGAATGTGCTG+CAGCACATCCTGCACGTCG ((((((((.(.((((((((+)))))))).).))))))))	55.2 °C
CGACGTGCCACATGTGCTG+CAGCACATCTGGCACGTCG ((((((((((.((((((((+)))))))).))))))))))	55.2 °C
CGACGTGCGGGATGTGCTG+CAGCACATTCAGCACGTCG ((((((((.(.((((((((+)))))))).).))))))))	56.4 °C
CGACGTGCGGAATGTGCTG+CAGCACATCGGGCACGTCG ((((((((...((((((((+))))))))...))))))))	50 °C
CGACGTGCTTCATGTGCTG+CAGCACATTTGGCACGTCG ((((((((...((((((((+))))))))...))))))))	48.6 °C
CGACGTGCAAGATGTGCTG+CAGCACATTCGGCACGTCG ((((((((...((((((((+))))))))...))))))))	51.3 °C
CGACGTGCGCCATGTGCTG+CAGCACATCAGGCACGTCG ((((((((...((((((((+))))))))...))))))))	47.8 °C
CGACGTGCGTAATGTGCTG+CAGCACATATAGCACGTCG ((((((((...((((((((+))))))))...))))))))	54.5 °C
CGACGTGCATAATGTGCTG+CAGCACATTATGCACGTCG (((((((((((((((((((+)))))))))))))))))))	61.8 °C
CGACGTGCCTAATGTGCTG+CAGCACATGAGGCACGTCG ((((((((((.((((((((+)))))))).))))))))))	58.5 °C

Substance	Tm
CGACGTGCAAAATGTGCTG+CAGCACATGTCGCACGTCG ((((((((.(.((((((((+)))))))).).))))))))	53.3 °C
CGACGTGCACAATGTGCTG+CAGCACATAGAGCACGTCG ((((((((.(.((((((((+)))))))).).))))))))	48.4 °C
CGACGTGCTTCATGTGCTG+CAGCACATCCCGCACGTCG ((((((((...((((((((+))))))))...))))))))	47.5 °C
CGACGTGCTCTATGTGCTG+CAGCACATCTGGCACGTCG ((((((((...((((((((+))))))))...))))))))	49.5 °C
CGACGTGCAACATGTGCTG+CAGCACATACTGCACGTCG (((((((((..((((((((+))))))))..)))))))))	49.8 °C
CGACGTGCCTGATGTGCTG+CAGCACATACGGCACGTCG (((((((((..((((((((+))))))))..)))))))))	54.1 °C
CGACGTGCAGTATGTGCTG+CAGCACATGCGGCACGTCG ((((((((.(.((((((((+)))))))).).))))))))	55.3 °C
CGACGTGCATGATGTGCTG+CAGCACATGAGGCACGTCG ((((((((.(.((((((((+)))))))).).))))))))	52.6 °C
CGACGTGCACAATGTGCTG+CAGCACATCGCGCACGTCG ((((((((.(.((((((((+)))))))).).))))))))	48.5 °C
CGACGTGCCTCATGTGCTG+CAGCACATAATGCACGTCG ((((((((.(.((((((((+)))))))).).))))))))	48 °C
CGACGTGCTTCATGTGCTG+CAGCACATATAGCACGTCG (((((((((..((((((((+))))))))..)))))))))	51.5 °C
CGACGTGCCTTATGTGCTG+CAGCACATAGCGCACGTCG ((((((((..(((((((((+)))))))))..))))))))	50.4 °C
CGACGTGCATCATGTGCTG+CAGCACATGGGGCACGTCG ((((((((..(((((((((+)))))))))..))))))))	56.5 °C
CGACGTGCGGAATGTGCTG+CAGCACATACCGCACGTCG ((((((((((.((((((((+)))))))).))))))))))	60.2 °C
CGACGTGCTACATGTGCTG+CAGCACATTTGGCACGTCG ((((((((.(.((((((((+)))))))).).))))))))	51.1 °C
CGACGTGCCCCATGTGCTG+CAGCACATCCGGCACGTCG (((((((((..((((((((+))))))))..)))))))))	51.4 °C
CGACGTGCGGTATGTGCTG+CAGCACATAAAGCACGTCG ((((((((..(((((((((+)))))))))..))))))))	56.9 °C
CGACGTGCGCGATGTGCTG+CAGCACATTTGGCACGTCG ((((((((...((((((((+))))))))...))))))))	49.7 °C
CGACGTGCGTCATGTGCTG+CAGCACATCGCGCACGTCG (((((((((..((((((((+))))))))..)))))))))	54.2 °C
CGACGTGCACGATGTGCTG+CAGCACATGGGGCACGTCG ((((((((.(.((((((((+)))))))).).))))))))	54.9 °C
CGACGTGCGTCATGTGCTG+CAGCACATCTAGCACGTCG ((((((((...((((((((+))))))))...))))))))	51.5 °C
CGACGTGCCCAATGTGCTG+CAGCACATAGCGCACGTCG ((((((((.(.((((((((+)))))))).).))))))))	48.9 °C
CGACGTGCATTATGTGCTG+CAGCACATTTCGCACGTCG ((((((((...((((((((+))))))))...))))))))	48.3 °C
CGACGTGCGAGATGTGCTG+CAGCACATCATGCACGTCG ((((((((..(((((((((+)))))))))..))))))))	56.7 °C

Substance	Tm
CGACGTGCAAGATGTGCTG+CAGCACATTTTGCACGTCG ((((((((((.((((((((+)))))))).))))))))))	57.3 °C
CGACGTGCTGCATGTGCTG+CAGCACATCTTGCACGTCG ((((((((...((((((((+))))))))...))))))))	50.1 °C
CGACGTGCGGTATGTGCTG+CAGCACATCAAGCACGTCG ((((((((...((((((((+))))))))...))))))))	54 °C
CGACGTGCTCAATGTGCTG+CAGCACATTGTGCACGTCG ((((((((.((((((((((+)))))))))).))))))))	56.7 °C
CGACGTGCTACATGTGCTG+CAGCACATAACGCACGTCG ((((((((...((((((((+))))))))...))))))))	49 °C
CGACGTGCCTTATGTGCTG+CAGCACATGGTGCACGTCG ((((((((...((((((((+))))))))...))))))))	46 °C
CGACGTGCGAAATGTGCTG+CAGCACATACCGCACGTCG (((((((((..((((((((+))))))))..)))))))))	53.9 °C
CGACGTGCTGAATGTGCTG+CAGCACATAGTGCACGTCG ((((((((...((((((((+))))))))...))))))))	45.3 °C
CGACGTGCTGGATGTGCTG+CAGCACATCTCGCACGTCG ((((((((..(((((((((+)))))))))..))))))))	55.3 °C
CGACGTGCACTATGTGCTG+CAGCACATGGCGCACGTCG ((((((((.(.((((((((+)))))))).).))))))))	50.3 °C
CGACGTGCGGAATGTGCTG+CAGCACATGGTGCACGTCG ((((((((...((((((((+))))))))...))))))))	52.2 °C
CGACGTGCGAAATGTGCTG+CAGCACATCATGCACGTCG ((((((((...((((((((+))))))))...))))))))	49.9 °C
CGACGTGCAGGATGTGCTG+CAGCACATGCGGCACGTCG ((((((((.(.((((((((+)))))))).).))))))))	55.3 °C
CGACGTGCTGCATGTGCTG+CAGCACATAGCGCACGTCG ((((((((...((((((((+))))))))...))))))))	54.2 °C
CGACGTGCCTAATGTGCTG+CAGCACATCGTGCACGTCG ((((((((...((((((((+))))))))...))))))))	43.1 °C
CGACGTGCACGATGTGCTG+CAGCACATACCGCACGTCG ((((((((...((((((((+))))))))...))))))))	43.6 °C
CGACGTGCTTTATGTGCTG+CAGCACATTCAGCACGTCG (((((((((..((((((((+))))))))..)))))))))	50.5 °C
CGACGTGCAGCATGTGCTG+CAGCACATCATGCACGTCG (((((((((..((((((((+))))))))..)))))))))	49.5 °C
CGACGTGCTTAATGTGCTG+CAGCACATTCAGCACGTCG (((((((((.(((((((((+))))))))).)))))))))	55.5 °C
CGACGTGCCACATGTGCTG+CAGCACATGCAGCACGTCG ((((((((..(((((((((+)))))))))..))))))))	53.6 °C
CGACGTGCCTTATGTGCTG+CAGCACATTAGGCACGTCG ((((((((((.((((((((+)))))))).))))))))))	58 °C
CGACGTGCACGATGTGCTG+CAGCACATGAGGCACGTCG ((((((((...((((((((+))))))))...))))))))	48.4 °C
CGACGTGCCCCATGTGCTG+CAGCACATGGCGCACGTCG ((((((((.((((((((((+)))))))))).))))))))	57.3 °C
CGACGTGCTAAATGTGCTG+CAGCACATTGTGCACGTCG ((((((((..(((((((((+)))))))))..))))))))	50.7 °C
